Experimental data taken from patent US20170008955A1 (CNJ, published 2017).
Where a chain is given by its changes, count along the chain named.

B1: hu5E3-IgG1 (antibody, V domains shown)
VH: QVQLQQSGPEVKKPGASVKISCKASGYIFTSYYIQWVIHAPGQGLEWIGWIYPGNVNTKYNEKFKGKATLTADKSSSTAYMELSSLTSEDTAVYFCARMDYEAHYWGQGTTVTVSS
VL: DIQMTQSPSSLSASVGDRVTITCRASQEISGYLTWLQQKPEGAIKRLIYAASTLDSGVPKRFSGSRSGSDYSLTISSLQPEDFATYNCLQYANYPRTFGGGTKLEIK
notes: human IgG1/kappa; also called humanized 5E3 IgG1; IHA variant
B2: hu5E3-IgG4 (antibody, V domains shown)
VH: B1 VH
VL: B1 VL
notes: human IgG4/kappa; also called humanized 5E3 IgG4
B3: hu5E3-IgG2 (antibody, V domains shown)
VH: B1 VH
VL: B1 VL
notes: human IgG2/kappa; also called humanized 5E3 IgG2
B4: murine monoclonal antibody 5E3 (antibody, V domains shown)
VH: B1 VH with V11L, K12V, K19R, A40R, E82Q, S85R, T91S, V112L
VL: B1 VL with V15L, D17E, T20S, I21L, E41D, A43T, Q79E, P80S, T85D
notes: mouse antibody of the 5E3 hybridoma; also called murine 5E3; m5E3
B5: rehu5E3-IgG4 (antibody, V domains shown)
VH: B1 VH with K12V, T87R, T91S, T111L
VL: B1 VL with V15L, I21L, G42K, S72T, T85D
notes: human IgG4/kappa; also called IgG4 rehu version

Experiments:
cSNK:BSA conjugate [1] = molecular target: T1, cSNK:BSA conjugate (bovine, head-to-tail cyclized; conjugated to BSA carrier); assay: BLI 2:1 fit, site 1; 25 nM row
T1 construct: also called BSA-cSNK
T1 sequence (P02769 25-607 limits assumed): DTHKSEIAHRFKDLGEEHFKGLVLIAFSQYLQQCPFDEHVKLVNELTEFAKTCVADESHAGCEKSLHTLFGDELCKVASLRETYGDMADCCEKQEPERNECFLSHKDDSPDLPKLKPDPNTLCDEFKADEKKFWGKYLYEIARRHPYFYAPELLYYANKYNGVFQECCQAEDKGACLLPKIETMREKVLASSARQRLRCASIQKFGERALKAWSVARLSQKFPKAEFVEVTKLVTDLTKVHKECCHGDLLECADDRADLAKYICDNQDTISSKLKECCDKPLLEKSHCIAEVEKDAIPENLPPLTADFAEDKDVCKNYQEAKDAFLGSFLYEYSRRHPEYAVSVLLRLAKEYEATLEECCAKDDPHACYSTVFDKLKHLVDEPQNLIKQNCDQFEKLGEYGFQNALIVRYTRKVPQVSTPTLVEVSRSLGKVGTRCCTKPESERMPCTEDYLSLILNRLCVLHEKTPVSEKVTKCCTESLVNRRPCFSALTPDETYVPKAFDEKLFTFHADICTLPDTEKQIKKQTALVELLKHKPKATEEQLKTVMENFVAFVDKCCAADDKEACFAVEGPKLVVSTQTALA
Description: (§1) Biolayer interferometry (Octet […], ForteBio) was used to qualitatively/quantitatively assess the interactions between humanized versions of 5E3 and cSNK:BSA conjugate. […] MAbs were loaded onto sensors and then washed in PBST. Each sensor was associated with one of several cSNK:BSA standards (100 nM to 0 nM) and then washed in PBST. Data was processed statistically using ForteBio Data Analysis software to determine the strength of antigen-antibody binding (KD). For each mAb analyzed, a 2:1 model provided the “best fit”.

cSNK:BSA conjugate [2] = molecular target: T1, cSNK:BSA conjugate; assay: BLI 2:1 fit, site 1; 50 nM row
Description: as §1

cSNK:BSA conjugate [3] = molecular target: T1, cSNK:BSA conjugate; assay: BLI 2:1 fit, site 1; 3.13 nM row
Description: as §1

cSNK:BSA conjugate [4] = molecular target: T1, cSNK:BSA conjugate; assay: BLI 2:1 fit, site 1; 6.25 nM row
Description: as §1

cSNK:BSA conjugate [5] = molecular target: T1, cSNK:BSA conjugate; assay: BLI 2:1 fit, site 1; 1.56 nM row
Description: as §1

cSNK:BSA conjugate [6] = molecular target: T1, cSNK:BSA conjugate; assay: BLI (Octet), 1:1 model, BSA-cSNK
Description: Biolayer interferometry (Octet Red92, ForteBio) was used to qualitatively/quantitatively assess the interactions between humanized 5E3 and Δ5E3 mAbs to the cSNK:BSA conjugate. […] MAbs were loaded onto sensors and then washed in PBST. Each sensor was associated with one of several cSNK:BSA standards (100 nM to 0 nM) and then washed in PBST. Data was processed statistically using ForteBio Data Analysis software to determine the strength of antigen-antibody binding (KD). For each mAb analyzed, a 1:1 model provided the “best fit”.

cSNK:BSA conjugate [7] = molecular target: T1, cSNK:BSA conjugate; assay: BLI 2:1 fit, site 2 (KD2); 50 nM row
Description: as §1

cSNK:BSA conjugate [8] = molecular target: T1, cSNK:BSA conjugate; assay: BLI 2:1 fit, site 2 (KD2); 25 nM row
Description: as §1

cSNK:BSA conjugate [9] = molecular target: T1, cSNK:BSA conjugate; assay: BLI 2:1 fit, site 2 (kon2); 50 nM row
Description: as §1

cSNK:BSA conjugate [10] = molecular target: T1, cSNK:BSA conjugate; assay: BLI 2:1 fit, site 2 (kon2); 25 nM row
Description: as §1

cSNK:BSA conjugate [11] = molecular target: T1, cSNK:BSA conjugate; assay: BLI 2:1 fit, site 2 (KD2); 3.13 nM row
Description: as §1

cSNK:BSA conjugate [12] = molecular target: T1, cSNK:BSA conjugate; assay: BLI 2:1 fit, site 2 (KD2); 6.25 nM row
Description: as §1

cSNK:BSA conjugate [13] = molecular target: T1, cSNK:BSA conjugate; assay: BLI 2:1 fit, site 2 (kdis2); 25 nM row
Description: as §1

cSNK:BSA conjugate [14] = molecular target: T1, cSNK:BSA conjugate; assay: BLI 2:1 fit, site 2 (kdis2); 50 nM row
Description: as §1

cSNK:BSA conjugate [15] = molecular target: T1, cSNK:BSA conjugate; assay: BLI 2:1 fit, site 2 (KD2); 1.56 nM row
Description: as §1

cSNK:BSA conjugate [16] = molecular target: T1, cSNK:BSA conjugate; assay: BLI 2:1 fit, site 2 (KD2); 12.5 nM row
Description: as §1

cSNK:BSA conjugate [17] = molecular target: T1, cSNK:BSA conjugate; assay: BLI 2:1 fit, site 2 (kon2); 3.13 nM row
Description: as §1

cSNK:BSA conjugate [18] = molecular target: T1, cSNK:BSA conjugate; assay: BLI 2:1 fit, site 2 (kon2); 6.25 nM row
Description: as §1

cSNK:BSA conjugate [19] = molecular target: T1, cSNK:BSA conjugate; assay: BLI 2:1 fit, site 2 (kon2); 1.56 nM row
Description: as §1

cSNK:BSA conjugate [20] = molecular target: T1, cSNK:BSA conjugate; assay: BLI 2:1 fit, site 2 (kdis2); 12.5 nM row
Description: as §1

cSNK:BSA conjugate [21] = molecular target: T1, cSNK:BSA conjugate; assay: BLI (Octet RED96), 2:1 kinetics, KD1, summary table
Description: as §1
(§2) Table 7 summarizes the affinity constants of humanized 5E3 IgG1, IgG2 and IgG4 constructs. The KD ranges were determined using 2:1 kinetics of binding of analyte (BSA-cSNK) in solution to two different binding sites on the surface (immobilized bivalent, monospecific 5E3) in comparison to murine 5E3 using biolayer interferometry (Octet RED96).

cSNK:BSA conjugate [22] = molecular target: T1, cSNK:BSA conjugate; assay: BLI (Octet RED96), 2:1 kinetics, KD2, summary table
Description: as §1, §2

cSNK:BSA conjugate [23] = molecular target: T1, cSNK:BSA conjugate; assay: BLI 2:1 fit, site 2 (kon2); 100 nM row
Description: as §1

cSNK:BSA conjugate [24] = molecular target: T1, cSNK:BSA conjugate; assay: BLI 2:1 fit, site 2 (kdis2); 100 nM row
Description: as §1

Row | Binder | koff (cSNK:BSA conjugate [1]) [s⁻¹] | kon (cSNK:BSA conjugate [1]) [M⁻¹ s⁻¹] | koff (cSNK:BSA conjugate [2]) [s⁻¹] | kon (cSNK:BSA conjugate [2]) [M⁻¹ s⁻¹] | koff (cSNK:BSA conjugate [3]) [s⁻¹] | kon (cSNK:BSA conjugate [3]) [M⁻¹ s⁻¹] | koff (cSNK:BSA conjugate [4]) [s⁻¹] | kon (cSNK:BSA conjugate [4]) [M⁻¹ s⁻¹] | Kd (cSNK:BSA conjugate [7]) [nM] | Kd (cSNK:BSA conjugate [8]) [nM] | kon (cSNK:BSA conjugate [9]) [M⁻¹ s⁻¹] | kon (cSNK:BSA conjugate [10]) [M⁻¹ s⁻¹] | Kd (cSNK:BSA conjugate [11]) [nM] | Kd (cSNK:BSA conjugate [12]) [nM] | koff (cSNK:BSA conjugate [13]) [s⁻¹] | koff (cSNK:BSA conjugate [14]) [s⁻¹] | Kd (cSNK:BSA conjugate [16]) [nM] | kon (cSNK:BSA conjugate [17]) [M⁻¹ s⁻¹] | kon (cSNK:BSA conjugate [18]) [M⁻¹ s⁻¹] | koff (cSNK:BSA conjugate [20]) [s⁻¹] | further results
1 | B1 | 0.000825 | 1.78e+06 | 0.000825 | 1.78e+06 | 0.000825 | 1.78e+06 | 0.000825 | 1.78e+06 | 1.82 | 1.82 | 6.56e+06 | 6.56e+06 | 1.82 | 1.82 | 0.012 | 0.012 | 1.82 | 6.56e+06 | 6.56e+06 | 0.012 | Kd (cSNK:BSA conjugate [1]): 0.463 nM; Kd (cSNK:BSA conjugate [2]): 0.463 nM; Kd (cSNK:BSA conjugate [3]): 0.463 nM; Kd (cSNK:BSA conjugate [4]): 0.463 nM; Kd (cSNK:BSA conjugate [5]): 0.463 nM; koff (cSNK:BSA conjugate [5]): 0.000825 s⁻¹; kon (cSNK:BSA conjugate [5]): 1.78e+06 M⁻¹ s⁻¹; Kd (cSNK:BSA conjugate [6]): 2.01 nM; Kd (cSNK:BSA conjugate [15]): 1.82 nM; kon (cSNK:BSA conjugate [19]): 6.56e+06 M⁻¹ s⁻¹; Kd (cSNK:BSA conjugate [21]): 0.463 nM; Kd (cSNK:BSA conjugate [22]): 0.182 nM
2 | B2 | 0.00055 | 868000 | 0.00055 | 868000 | 0.00055 | 868000 | 0.00055 | 868000 | 3.04 | 3.04 | 7.52e+06 | 7.52e+06 | 3.04 | 3.04 | 0.0229 | 0.0229 | 3.04 | 7.52e+06 | 7.52e+06 | 0.0229 | Kd (cSNK:BSA conjugate [1]): 0.633 nM; Kd (cSNK:BSA conjugate [2]): 0.633 nM; Kd (cSNK:BSA conjugate [3]): 0.633 nM; Kd (cSNK:BSA conjugate [4]): 0.633 nM; Kd (cSNK:BSA conjugate [5]): 0.633 nM; koff (cSNK:BSA conjugate [5]): 0.00055 s⁻¹; kon (cSNK:BSA conjugate [5]): 868000 M⁻¹ s⁻¹; Kd (cSNK:BSA conjugate [6]): 1.31 nM; Kd (cSNK:BSA conjugate [15]): 3.04 nM; kon (cSNK:BSA conjugate [23]): 7.52e+06 M⁻¹ s⁻¹; koff (cSNK:BSA conjugate [24]): 0.0229 s⁻¹; kon (cSNK:BSA conjugate [19]): 7.52e+06 M⁻¹ s⁻¹; Kd (cSNK:BSA conjugate [21]): 0.633 nM; Kd (cSNK:BSA conjugate [22]): 0.304 nM
3 | B3 | 0.000762 | 644000 | 0.000762 | 644000 | 0.000762 | 644000 | 0.000762 | 644000 | 6.39 | 6.39 | 5.28e+06 | 5.28e+06 | 6.39 | 6.39 | 0.0338 | 0.0338 | 6.39 | 5.28e+06 | 5.28e+06 | 0.0338 | Kd (cSNK:BSA conjugate [1]): 1.18 nM; Kd (cSNK:BSA conjugate [2]): 1.18 nM; Kd (cSNK:BSA conjugate [3]): 1.18 nM; Kd (cSNK:BSA conjugate [4]): 1.18 nM; Kd (cSNK:BSA conjugate [6]): 0.326 nM; kon (cSNK:BSA conjugate [23]): 5.28e+06 M⁻¹ s⁻¹; koff (cSNK:BSA conjugate [24]): 0.0338 s⁻¹; Kd (cSNK:BSA conjugate [21]): 1.18 nM; Kd (cSNK:BSA conjugate [22]): 6.39 nM
4 | B4 | 0.000428 | 1.29e+06 | 0.000428 | 1.29e+06 | 0.000428 | 1.29e+06 | 0.000428 | 1.29e+06 | 1.59 | 1.59 | 1.42e+07 | 1.42e+07 | 1.59 | 1.59 | 0.0226 | 0.0226 | 1.59 | 1.42e+07 | 1.42e+07 | 0.0226 | Kd (cSNK:BSA conjugate [1]): 0.33 nM; Kd (cSNK:BSA conjugate [2]): 0.33 nM; Kd (cSNK:BSA conjugate [3]): 0.33 nM; Kd (cSNK:BSA conjugate [4]): 0.33 nM; Kd (cSNK:BSA conjugate [5]): 0.33 nM; koff (cSNK:BSA conjugate [5]): 0.000428 s⁻¹; kon (cSNK:BSA conjugate [5]): 1.29e+06 M⁻¹ s⁻¹; Kd (cSNK:BSA conjugate [15]): 1.59 nM; kon (cSNK:BSA conjugate [23]): 1.42e+07 M⁻¹ s⁻¹; koff (cSNK:BSA conjugate [24]): 0.0226 s⁻¹; kon (cSNK:BSA conjugate [19]): 1.42e+07 M⁻¹ s⁻¹; Kd (cSNK:BSA conjugate [21]): 0.33 nM
5 | B5 | 0.000386 | 692000 | 0.000386 | 692000 | 0.000386 | 692000 | 0.000386 | 692000 | 3.94 | 3.94 | 4.44e+06 | 4.44e+06 | 3.94 | 3.94 | 0.0175 | 0.0175 | 3.94 | 4.44e+06 | 4.44e+06 | 0.0175 | koff (cSNK:BSA conjugate [5]): 0.000386 s⁻¹; kon (cSNK:BSA conjugate [5]): 692000 M⁻¹ s⁻¹; Kd (cSNK:BSA conjugate [15]): 3.94 nM; kon (cSNK:BSA conjugate [23]): 4.44e+06 M⁻¹ s⁻¹; koff (cSNK:BSA conjugate [24]): 0.0175 s⁻¹; kon (cSNK:BSA conjugate [19]): 4.44e+06 M⁻¹ s⁻¹; Kd (cSNK:BSA conjugate [21]): 0.557 nM; Kd (cSNK:BSA conjugate [22]): 0.394 nM
